B1: GpH7-B3 variant (T335_04F)/GpL16-k0 (antibody, human IgG1, kappa)
heavy: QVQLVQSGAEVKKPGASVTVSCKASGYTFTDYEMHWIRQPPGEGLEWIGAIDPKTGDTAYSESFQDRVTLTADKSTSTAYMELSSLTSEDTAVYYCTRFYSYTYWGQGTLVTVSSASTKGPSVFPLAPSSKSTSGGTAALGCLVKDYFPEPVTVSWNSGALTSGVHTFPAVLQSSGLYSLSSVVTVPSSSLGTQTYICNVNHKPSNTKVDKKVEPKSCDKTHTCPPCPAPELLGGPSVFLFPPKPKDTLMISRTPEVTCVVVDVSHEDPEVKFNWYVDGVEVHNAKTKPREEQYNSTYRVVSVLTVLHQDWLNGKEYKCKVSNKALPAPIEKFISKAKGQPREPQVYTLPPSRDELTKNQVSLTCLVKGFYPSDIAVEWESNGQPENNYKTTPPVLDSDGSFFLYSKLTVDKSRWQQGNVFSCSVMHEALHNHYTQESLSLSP
light: DIVMTQSPLSLPVTPGEPASISCQASESLVHSNRNTYLHWYLQKPGQSPQLLIYKVSNRFSGVPDRFSGSGSGTDFTLKISRVEAEDVGVYYCSQNTHVPPTFGQGTKVEIERTVAAPSVFIFPPSDEQLKSGTASVVCLLNNFYPREAKVQWKVDNALQSGNSQESVTEQDSKDSTYSLSSTLTLSKADYEKHKVYACEVTHQGLSSPVTKSFNRGEC
notes: Homodimerized; both H chains altered; also called Ho Ab T335_04F
B2: GpH7-B3 variant (A330_04F)/GpL16-k0 (antibody, human IgG1, kappa)
heavy: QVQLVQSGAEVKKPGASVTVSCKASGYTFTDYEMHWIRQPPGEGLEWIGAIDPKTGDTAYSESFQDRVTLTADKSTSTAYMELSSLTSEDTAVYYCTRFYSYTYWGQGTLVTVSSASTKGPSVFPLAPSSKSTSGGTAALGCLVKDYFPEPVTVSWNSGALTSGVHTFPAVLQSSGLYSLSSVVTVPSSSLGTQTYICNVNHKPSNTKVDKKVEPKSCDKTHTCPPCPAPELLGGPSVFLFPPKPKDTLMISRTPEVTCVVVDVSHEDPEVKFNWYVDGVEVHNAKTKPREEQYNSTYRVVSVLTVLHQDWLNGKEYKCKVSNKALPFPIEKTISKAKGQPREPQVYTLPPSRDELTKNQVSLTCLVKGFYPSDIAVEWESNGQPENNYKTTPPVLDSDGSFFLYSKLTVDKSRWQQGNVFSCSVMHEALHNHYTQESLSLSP
light: B1 light
notes: Homodimerized; both H chains altered; also called Ho Ab A330_04F
B3: GpH7-B3 variant (H268_18N)/GpL16-k0 (antibody, human IgG1, kappa)
heavy: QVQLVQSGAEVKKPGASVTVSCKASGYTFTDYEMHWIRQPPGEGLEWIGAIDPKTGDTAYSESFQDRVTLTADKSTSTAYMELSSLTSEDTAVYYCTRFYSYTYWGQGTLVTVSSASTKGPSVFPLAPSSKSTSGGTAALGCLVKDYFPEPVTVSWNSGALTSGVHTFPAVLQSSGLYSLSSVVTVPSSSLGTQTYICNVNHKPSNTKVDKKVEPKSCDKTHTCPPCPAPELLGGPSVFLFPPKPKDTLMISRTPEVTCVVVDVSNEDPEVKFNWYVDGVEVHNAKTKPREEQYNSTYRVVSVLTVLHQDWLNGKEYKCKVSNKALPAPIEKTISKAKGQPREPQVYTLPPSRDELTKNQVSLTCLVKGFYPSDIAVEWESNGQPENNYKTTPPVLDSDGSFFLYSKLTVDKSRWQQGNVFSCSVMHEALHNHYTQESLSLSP
light: B1 light
notes: Homodimerized; both H chains altered; also called Ho Ab H268_18N
B4: GpH7-B3 variant (A330_19Q)/GpL16-k0 (antibody, human IgG1, kappa)
heavy: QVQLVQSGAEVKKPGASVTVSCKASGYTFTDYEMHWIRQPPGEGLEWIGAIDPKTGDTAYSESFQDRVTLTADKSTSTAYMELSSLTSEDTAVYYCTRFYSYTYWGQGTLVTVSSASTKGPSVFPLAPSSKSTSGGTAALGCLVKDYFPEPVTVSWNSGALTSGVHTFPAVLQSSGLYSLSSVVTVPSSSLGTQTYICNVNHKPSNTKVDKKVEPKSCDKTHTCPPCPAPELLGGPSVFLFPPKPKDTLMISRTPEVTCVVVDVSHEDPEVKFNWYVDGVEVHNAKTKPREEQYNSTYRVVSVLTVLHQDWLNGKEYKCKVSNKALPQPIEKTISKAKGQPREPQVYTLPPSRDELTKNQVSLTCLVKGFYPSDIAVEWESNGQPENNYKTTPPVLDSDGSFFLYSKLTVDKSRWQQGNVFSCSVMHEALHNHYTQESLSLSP
light: B1 light
notes: Homodimerized; both H chains altered; also called Ho Ab A330_19Q
B5: GpH7-B3 variant (I336_09D)/GpL16-k0 (antibody, human IgG1, kappa)
heavy: not shown
light: B1 light
notes: Homodimerized; both H chains altered; also called Ho Ab I336_09D
B6: GpH7-B3 variant (H268_09D)/GpL16-k0 (antibody, human IgG1, kappa)
heavy: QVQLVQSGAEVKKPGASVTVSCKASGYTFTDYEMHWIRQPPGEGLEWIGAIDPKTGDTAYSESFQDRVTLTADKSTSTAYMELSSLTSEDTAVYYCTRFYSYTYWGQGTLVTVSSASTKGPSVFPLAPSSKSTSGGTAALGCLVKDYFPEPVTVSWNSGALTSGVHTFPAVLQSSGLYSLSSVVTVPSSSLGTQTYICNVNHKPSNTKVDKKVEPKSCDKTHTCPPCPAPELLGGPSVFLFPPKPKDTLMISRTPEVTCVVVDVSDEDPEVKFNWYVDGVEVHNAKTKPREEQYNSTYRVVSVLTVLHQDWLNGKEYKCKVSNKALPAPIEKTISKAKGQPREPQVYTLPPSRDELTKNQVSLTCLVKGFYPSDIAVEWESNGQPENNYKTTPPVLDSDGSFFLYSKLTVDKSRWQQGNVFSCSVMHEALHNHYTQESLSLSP
light: B1 light
notes: Homodimerized; both H chains altered; also called Ho Ab H268_09D
B7: GpH7-B3 variant (H268_13S)/GpL16-k0 (antibody, human IgG1, kappa)
heavy: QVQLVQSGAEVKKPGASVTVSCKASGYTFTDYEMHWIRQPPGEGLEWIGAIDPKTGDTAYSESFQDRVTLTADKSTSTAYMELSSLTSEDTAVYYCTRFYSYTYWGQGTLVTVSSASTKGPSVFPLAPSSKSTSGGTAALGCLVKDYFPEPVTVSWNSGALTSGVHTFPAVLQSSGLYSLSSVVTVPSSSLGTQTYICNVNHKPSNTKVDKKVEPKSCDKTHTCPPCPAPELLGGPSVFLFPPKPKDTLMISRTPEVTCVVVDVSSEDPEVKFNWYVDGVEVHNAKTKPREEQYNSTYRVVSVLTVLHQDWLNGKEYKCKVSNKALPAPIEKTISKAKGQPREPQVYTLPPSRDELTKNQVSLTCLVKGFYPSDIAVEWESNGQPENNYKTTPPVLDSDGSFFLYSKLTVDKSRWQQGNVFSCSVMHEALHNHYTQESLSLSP
light: B1 light
notes: Homodimerized; both H chains altered; also called Ho Ab H268_13S
B8: GpH7-B3 variant (H268_10E)/GpL16-k0 (antibody, human IgG1, kappa)
heavy: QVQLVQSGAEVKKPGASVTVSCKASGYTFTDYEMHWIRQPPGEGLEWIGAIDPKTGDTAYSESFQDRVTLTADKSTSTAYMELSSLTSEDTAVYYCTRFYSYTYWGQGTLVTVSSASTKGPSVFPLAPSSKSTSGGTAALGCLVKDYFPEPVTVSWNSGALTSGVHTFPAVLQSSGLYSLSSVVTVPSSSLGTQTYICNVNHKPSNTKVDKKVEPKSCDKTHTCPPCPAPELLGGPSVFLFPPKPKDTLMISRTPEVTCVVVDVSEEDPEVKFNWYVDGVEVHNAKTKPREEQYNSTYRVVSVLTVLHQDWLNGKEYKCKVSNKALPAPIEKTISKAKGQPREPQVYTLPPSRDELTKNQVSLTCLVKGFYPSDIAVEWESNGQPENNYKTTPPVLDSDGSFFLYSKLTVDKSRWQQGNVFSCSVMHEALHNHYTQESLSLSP
light: B1 light
notes: Homodimerized; both H chains altered; also called Ho Ab H268_10E
B9: GpH7-B3 variant (A330_10E)/GpL16-k0 (antibody, human IgG1, kappa)
heavy: not shown
light: B1 light
notes: Homodimerized; both H chains altered; also called Ho Ab A330_10E
B10: GpH7-B3 variant (I336_08L)/GpL16-k0 (antibody, human IgG1, kappa)
heavy: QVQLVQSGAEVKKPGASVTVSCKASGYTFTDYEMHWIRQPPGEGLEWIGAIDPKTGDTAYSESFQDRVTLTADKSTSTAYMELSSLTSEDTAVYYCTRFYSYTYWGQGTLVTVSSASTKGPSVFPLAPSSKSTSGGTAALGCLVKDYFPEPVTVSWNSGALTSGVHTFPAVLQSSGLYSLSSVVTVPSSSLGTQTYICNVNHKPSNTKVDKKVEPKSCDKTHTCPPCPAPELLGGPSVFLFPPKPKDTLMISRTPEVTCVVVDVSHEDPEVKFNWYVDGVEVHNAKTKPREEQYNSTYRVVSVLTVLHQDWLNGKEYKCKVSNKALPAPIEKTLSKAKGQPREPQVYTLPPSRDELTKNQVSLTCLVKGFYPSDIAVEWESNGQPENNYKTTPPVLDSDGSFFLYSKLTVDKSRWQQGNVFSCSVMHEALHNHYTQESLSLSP
light: B1 light
notes: Homodimerized; both H chains altered; also called Ho Ab I336_08L
B11: GpH7-B3 variant (A330_20W)/GpL16-k0 (antibody, human IgG1, kappa)
heavy: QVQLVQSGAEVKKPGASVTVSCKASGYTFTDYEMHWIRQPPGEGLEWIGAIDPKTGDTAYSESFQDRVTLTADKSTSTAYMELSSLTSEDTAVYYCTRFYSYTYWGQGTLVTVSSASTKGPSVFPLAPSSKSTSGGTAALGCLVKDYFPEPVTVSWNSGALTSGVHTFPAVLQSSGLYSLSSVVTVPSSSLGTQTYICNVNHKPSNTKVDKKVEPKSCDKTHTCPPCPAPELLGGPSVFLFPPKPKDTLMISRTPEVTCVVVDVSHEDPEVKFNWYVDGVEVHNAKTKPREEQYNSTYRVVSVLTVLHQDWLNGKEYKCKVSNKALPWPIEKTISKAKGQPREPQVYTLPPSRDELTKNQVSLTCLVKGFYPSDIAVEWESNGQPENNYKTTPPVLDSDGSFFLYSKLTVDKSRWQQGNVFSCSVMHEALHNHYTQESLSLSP
light: B1 light
notes: Homodimerized; both H chains altered; also called Ho Ab A330_20W
B12: GpH7-B3 variant (A330_01G)/GpL16-k0 (antibody, human IgG1, kappa)
heavy: not shown
light: B1 light
notes: Homodimerized; both H chains altered; also called Ho Ab A330_01G
B13: GpH7-B3 variant (D265_10E)/GpL16-k0 (antibody, human IgG1, kappa)
heavy: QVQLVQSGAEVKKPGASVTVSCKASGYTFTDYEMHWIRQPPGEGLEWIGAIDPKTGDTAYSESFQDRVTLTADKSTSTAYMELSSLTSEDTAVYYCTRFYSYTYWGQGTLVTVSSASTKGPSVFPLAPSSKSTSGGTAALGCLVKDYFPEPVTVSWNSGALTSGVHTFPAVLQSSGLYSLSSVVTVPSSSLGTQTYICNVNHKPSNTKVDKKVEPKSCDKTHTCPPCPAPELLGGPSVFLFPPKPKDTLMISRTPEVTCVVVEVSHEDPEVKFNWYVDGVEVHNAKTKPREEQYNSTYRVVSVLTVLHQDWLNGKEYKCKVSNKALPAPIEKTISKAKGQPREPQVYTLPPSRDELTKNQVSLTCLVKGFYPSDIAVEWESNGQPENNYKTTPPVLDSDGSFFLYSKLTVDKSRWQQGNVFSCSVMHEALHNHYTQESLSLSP
light: B1 light
notes: Homodimerized; both H chains altered; also called Ho Ab D265_10E
B14: GpH7-B3 variant (H268_01G)/GpL16-k0 (antibody, human IgG1, kappa)
heavy: not shown
light: B1 light
notes: Homodimerized; both H chains altered; also called Ho Ab H268_01G
B15: GpH7-A5/GpH7-B3 variant P238_06M/GpL16-k0 (heterodimerized antibody, He Ab) (antibody, human IgG1, kappa)
heavy 1: not shown
heavy 2: not shown
light: B1 light
notes: Anti-glypican-3 IgG1; the alteration is in the GpH7-B3 chain only; also called P238M
B16: GpH7-A5/GpH7-B3 variant V266_06M/GpL16-k0 (heterodimerized antibody, He Ab) (antibody, human IgG1, kappa)
heavy 1: not shown
heavy 2: not shown
light: B1 light
notes: Anti-glypican-3 IgG1; the alteration is in the GpH7-B3 chain only; also called V266M
B17: GpH7-A5/GpH7-B3 variant S239_08L/GpL16-k0 (heterodimerized antibody, He Ab) (antibody, human IgG1, kappa)
heavy 1: not shown
heavy 2: not shown
light: B1 light
notes: Anti-glypican-3 IgG1; the alteration is in the GpH7-B3 chain only; also called S239L
B18: GpH7-A5/GpH7-B3 variant P238_11K/GpL16-k0 (heterodimerized antibody, He Ab) (antibody, human IgG1, kappa)
heavy 1: not shown
heavy 2: not shown
light: B1 light
notes: Anti-glypican-3 IgG1; the alteration is in the GpH7-B3 chain only; also called P238K
B19: GpH7-A5/GpH7-B3 variant S267_08L/GpL16-k0 (heterodimerized antibody, He Ab) (antibody, human IgG1, kappa)
heavy 1: not shown
heavy 2: not shown
light: B1 light
notes: Anti-glypican-3 IgG1; the alteration is in the GpH7-B3 chain only; also called S267L
B20: GpH7-A5/GpH7-B3 variant S267_10E/GpL16-k0 (heterodimerized antibody, He Ab) (antibody, human IgG1, kappa)
heavy 1: not shown
heavy 2: not shown
light: B1 light
notes: Anti-glypican-3 IgG1; the alteration is in the GpH7-B3 chain only; also called S267E

T1 sequence (P12314 16-292): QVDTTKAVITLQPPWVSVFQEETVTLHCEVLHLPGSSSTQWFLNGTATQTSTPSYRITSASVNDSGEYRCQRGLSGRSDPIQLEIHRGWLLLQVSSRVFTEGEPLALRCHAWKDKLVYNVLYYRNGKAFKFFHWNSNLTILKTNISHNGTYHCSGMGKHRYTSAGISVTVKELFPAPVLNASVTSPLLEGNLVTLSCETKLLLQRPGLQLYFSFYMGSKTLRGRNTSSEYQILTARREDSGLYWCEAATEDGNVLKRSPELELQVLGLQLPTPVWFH
T2 sequence (P08637 17-208): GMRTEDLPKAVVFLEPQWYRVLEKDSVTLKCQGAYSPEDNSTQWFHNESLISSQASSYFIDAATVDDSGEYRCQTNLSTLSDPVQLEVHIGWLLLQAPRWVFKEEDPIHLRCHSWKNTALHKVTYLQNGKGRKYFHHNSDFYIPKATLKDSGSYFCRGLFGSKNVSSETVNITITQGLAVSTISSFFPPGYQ

One experiment has as its target T1, FcγRIa extracellular domain with C-terminal His tag (human, UniProt P12314 16-292).
T1 construct: extracellular domain; Expressed in FreeStyle293 cells; used as analyte in Biacore; also called FcgRI; 1a; not shown: His tag at the C terminus
Kind of experiment: SPR (Biacore), captured antibody, FcγRIa analyte; relative to GpH7-B3/GpL16-k0 = 100. (SPR reads the build-up and loss of mass on a sensor chip optically.)
As for B1, the Ho/Con_1a is 105 % of control. On the same count and under the same terms, under B2 stands 107 % of control; under B3, 108 % of control. In the case of B4, the Ho/Con_1a was 106 % of control.

As to B5, the Ho/Con_1a was 108 % of control. On the same count and under the same terms, in the case of B6 it was 110 % of control. Still for that read-out and setting: under B7 stands 110 % of control; under B8, 112 % of control; under B9, 108 % of control.

For B10, the Ho/Con_1a was 109 % of control.

On to B11, for which the Ho/Con_1a is 108 % of control.

For the molecule B12, the Ho/Con_1a was 106 % of control.

For B13, the Ho/Con_1a was 103 % of control. Still for that read-out and setting: in the case of B14 it was 108 % of control.

Another experiment concerns the target T2, FcγRIIIa extracellular domain with C-terminal His tag (human, UniProt P08637 17-208).
T2 construct: extracellular domain; also called FcgRIIIa; 3a; not shown: His tag at the C terminus
Kind of experiment: SPR (Biacore), captured antibody, FcγR as analyte; relative to GpH7-A5/GpH7-B3/GpL16-k0 = 100. As for the experimental part: (§1) Analysis of interaction between objective antibody and the FcγR was carried out using Biacore T100 (GE Healthcare). HBS-EP+ (GE Healthcare) was used as the running buffer, and the measurement temperature was set to 25° C. Chips produced by immobilizing the antigen peptide by the amine coupling method to a Series S Sencor Chip CM5 (GE Healthcare), or alternatively, chips produced by allowing preliminarily biotinylated antigen peptides to interact with and immobilize onto a Series S Sensor Chip SA (certified) (GE Healthcare) were used. Antibodies of interest were captured onto an antigen peptide-immobilized chip, and allowed to interact to each FcγR diluted with running buffer. To regenerate and repeatedly use the chip, the antibodies captured on the chip were washed off by reacting 10 mM glycine-HCl, pH 1.5.
(§2) The FcγR-binding activity of each antibody was assessed primarily using as an indicator the FcγR-binding activity and dissociation constant for FcγR.
With B15, the “He/Con_3a (IIIa binding)” value is 30.5 % of HeCon Ab. Still for that read-out and setting: in the case of B16 it was 85.8 % of HeCon Ab; in that of B17, 95.3 % of HeCon Ab. Same read-out and setting: under B18 stands 10.4 % of HeCon Ab; under B19, 19.5 % of HeCon Ab.

Consider B20, for which the “He/Con_3a (IIIa binding)” value was 91.9 % of HeCon Ab.

The next experiment addresses T3, FcγRIIb extracellular domain with C-terminal His tag (human, UniProt P31994 43-217).
T3 construct: extracellular domain; also called FcgRIIb; 2b; not shown: His tag at the C terminus
T3 sequence (looked up): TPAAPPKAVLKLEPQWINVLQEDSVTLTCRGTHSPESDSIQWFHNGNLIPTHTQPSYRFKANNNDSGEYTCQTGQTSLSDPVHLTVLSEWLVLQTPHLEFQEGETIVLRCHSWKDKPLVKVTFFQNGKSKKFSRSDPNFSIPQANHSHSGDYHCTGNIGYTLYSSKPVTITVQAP
Described as above. As for the experimental part:
as §1, §2
B15: the “He/Con_2b (IIb binding)” value is 174 % of HeCon Ab. The same measure, in the same setting: under B16 stands 251 % of HeCon Ab. As for B17, the “He/Con_2b (IIb binding)” value is 140 % of HeCon Ab. Same read-out and setting: under B18 stands 18.1 % of HeCon Ab. Still for that read-out and setting: under B19 stands 109 % of HeCon Ab; under B20, 379 % of HeCon Ab.

The values are drawn from patent US20180155451A1 (published 2018).
